We go through three molecules from patent US20230365705A1 (DYNAMICURE BIOTECHNOLOGY, published 2023).

What is called EC50 is the concentration needed to bring the measured effect to its halfway point. A word on the Kd: it is the free concentration of one partner at which half of the binding sites on the other are occupied at equilibrium, for simple one-to-one binding.

Assay [1] has as its target T1, Human CD93 on cells (human CD93 expressing CHO cells; HUVEC, U937 and KG1a cells) (human, UniProt Q9NPY3 22-652).
T1 construct: whole, on cells; also called hCD93 expressing CHO cells; hCD93 CHO cells
T1 sequence (looked up): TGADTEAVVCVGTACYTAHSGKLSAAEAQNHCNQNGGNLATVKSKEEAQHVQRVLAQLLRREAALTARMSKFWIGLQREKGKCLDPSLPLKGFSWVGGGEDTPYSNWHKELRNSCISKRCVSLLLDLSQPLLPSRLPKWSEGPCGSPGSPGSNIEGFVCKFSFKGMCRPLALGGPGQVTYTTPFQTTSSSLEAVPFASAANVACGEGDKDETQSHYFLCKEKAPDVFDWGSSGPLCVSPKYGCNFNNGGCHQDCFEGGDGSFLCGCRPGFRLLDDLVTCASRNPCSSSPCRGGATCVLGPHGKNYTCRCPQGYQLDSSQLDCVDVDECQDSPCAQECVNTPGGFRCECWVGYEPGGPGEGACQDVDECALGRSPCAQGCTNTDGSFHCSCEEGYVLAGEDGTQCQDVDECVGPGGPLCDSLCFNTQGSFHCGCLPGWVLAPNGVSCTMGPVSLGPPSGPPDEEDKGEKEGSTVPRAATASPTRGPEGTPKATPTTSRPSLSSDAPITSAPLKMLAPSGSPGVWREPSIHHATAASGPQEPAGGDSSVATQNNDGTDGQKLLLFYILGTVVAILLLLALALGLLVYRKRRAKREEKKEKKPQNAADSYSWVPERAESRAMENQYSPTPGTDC
The experiment in a line: summary table, column FACS (HUVEC cells).

Assay [2] addresses T2, Human CD93 recombinant protein (Sino Biological Inc, Catalog #12589-H08H) (human, UniProt Q9NPY3 22-580).
T2 construct: Biotinylated (EZ-LINK NHS-PEG4 biotin) in the BLI assays; also called hCD93; His-tagged human CD93
T2 sequence (looked up): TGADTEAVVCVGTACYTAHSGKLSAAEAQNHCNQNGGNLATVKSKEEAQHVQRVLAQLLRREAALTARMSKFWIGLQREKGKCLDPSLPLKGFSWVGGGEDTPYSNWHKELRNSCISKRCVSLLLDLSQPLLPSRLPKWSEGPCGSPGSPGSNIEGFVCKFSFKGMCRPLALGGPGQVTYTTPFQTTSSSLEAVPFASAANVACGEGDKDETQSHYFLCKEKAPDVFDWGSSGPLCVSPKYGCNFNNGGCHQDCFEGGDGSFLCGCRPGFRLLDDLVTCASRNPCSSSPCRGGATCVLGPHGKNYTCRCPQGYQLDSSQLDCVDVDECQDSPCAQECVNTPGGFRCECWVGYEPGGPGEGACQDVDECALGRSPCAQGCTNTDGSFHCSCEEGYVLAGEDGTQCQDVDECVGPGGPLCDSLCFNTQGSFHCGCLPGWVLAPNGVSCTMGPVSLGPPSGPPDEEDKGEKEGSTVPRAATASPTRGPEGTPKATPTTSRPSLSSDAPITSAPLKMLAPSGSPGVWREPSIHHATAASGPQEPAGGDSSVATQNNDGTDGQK
The assay is described as follows: summary table, column ELISA (hCD93). For orientation: An ELISA detects its analyte on a solid surface through an enzyme-linked reagent.

Assay [3] concerns the target T2, Human CD93 recombinant protein (Sino …). The assay is described as follows: summary table, column Octet (hCD93). (In general: BLI is a label-free optical method that tracks binding on a fibre tip over time.)
In assay [4] the target is T1, Human CD93 on cells (human CD93 …). The assay is described as follows: flow cytometry titration, KG1a cells. The protocol:
(§1) KG1a cells were detached by incubation with TrypLE reagents (Thermo Fisher), which preserves the integrity of CD93 on the cell surface. Then the cells were incubated with serial diluted anti-CD93 antibodies for 30 minutes at 4° C. After washing by FACS buffer, the cells were incubated with Alexa Fluor 647 conjugated anti-human IgG (Jackson ImmunoResearch) for 30 minutes in 4° C. After washing by FACS buffer twice, the samples were acquired in NovoCyte Flow Cytometer and analyzed by NovoExpress software.

The target of assay [5] is T2, Human CD93 recombinant protein (Sino …). The assay is described as follows: summary table, column Octet (hCD93); 2 weeks at 40 C. The protocol:
(§2) The binding affinity of anti-CD93 antibodies was determined with bio-layer interferometry using Octet QKe (Fortebio). […] Human CD93 recombinant protein (Sino Biological Inc, Catalog #12589-H08H) was biotinylated using EZ-LINK NHS-PEG4 biotin (Thermo Fisher Scientific). Streptavidin biosensors (Fortebio) were used to load biotinylated CD93 protein (300 seconds in 5 μg/ml). Baseline was stabilized for 60 seconds in 1×kinetics buffer (Fortebio) before anti-CD93 antibodies, at a serial dilution, were allowed to associate for 300 seconds with captured protein. Then the sensors were dissociated in 1× kinetics buffer for 600 seconds. […] (FIG. 41).
as §2, with “1× kinetics” for “1×kinetics”, “42).” for “41).”

Assay [6] has the same target. The assay is described as follows: ELISA, His-tagged human CD93 coated, OD450; antibody stored 4 weeks at 40 C. The protocol:
His-tagged human CD93 was coated onto a 96 well plate at 1 μg/mL in 1×PBS overnight at 4° C. The plate was washed with ELISA wash buffer (Boston BioProduct, Inc.) and the wells were blocked with ELISA blocking buffer for 1 hour at 37° C. […] The plate was washed with ELISA wash Buffer. HRP-conjugated anti-human Fc antibody was incubated for 1 hour at 37° C. The plate was washed with ELISA wash Buffer. HRP substrate was added for indirect detection of the antibodies binding to CD93.

Assay [7] concerns the target T1, Human CD93 on cells (human CD93 …). The assay is described as follows: summary table, column FACS (KG1a cells); 2 weeks at 40 C. How it is done: as §1, §1

B1: 16E4 (hybridoma) (antibody, IgG2a, V domains shown)
VH: QVQLQQPGAELVKPGASVKLSCKASGYTFTSYWMHWVKQRPGQGLEWIGEIDPSASYTYYNQKFKGKATLTVDKSSSTAYMQLSSLTSEDSAVYYCARSVYYGNKYFDVWGAGTTVTVSS
VL: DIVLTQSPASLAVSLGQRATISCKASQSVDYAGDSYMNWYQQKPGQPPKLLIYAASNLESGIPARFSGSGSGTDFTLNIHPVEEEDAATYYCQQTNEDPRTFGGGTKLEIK
notes: also called 16E4 mAb; 16E4 mIgG2a
Consider B1, for which the EC50 in assay [1] worked out at 0.2 nM; in assay [2], 0.112 nM. Further, the Kd in assay [3] worked out at 0.334 nM.

B2: h16E4 (humanized 16E4, VH4+VL6) (antibody, V domains shown)
VH: QVQLVQSGAEVKKPGASVKVSCKASGYTFTSYWMHWVRQAPGQGLEWMGEIDPSASYTYYNQKFKGRVTMTRDKSSSTVYMELSSLTSEDSAVYYCARSVYYGNKYFDVWGAGTTVTVSS
VL: DIQMTQSPSTLSASVGDRVTITCKASQSVDYAGDSYMNWYQQKPGKAPKLLIYAASNLESGVPSRFSGSGSGTEFTLTISSLQPDDFATYYCQQTNEDPRTFGGGTKLEIK
notes: Detected with anti-human IgG, so a human Fc
On to B2, for which the EC50 came out at 0.131 nM in assay [4], 0.033 nM in assay [2], 0.051 nM in assay [6] and 0.113 nM in assay [7]. The results for the Kd in assay [5] and in assay [3] were 0.0204 nM and 0.416 nM, respectively.

B3: h7F3 (humanized 7F3, VH3+VL3) (antibody, human IgG1, V domains shown)
VH: QVQLVQSGAEVKKPGASVKVSCKASGYTFTDYEMHWVRQAPGQGLEWMGGIDPETGDTAYNQNFKGRVTMTTDTSTSTAYMELRSLTSDDTAVYYCTNYGNLYYYAMDYWGQGTSVTVSS
VL: EIVLTQSPSSLSASVGDRVTITCRASSSVSSSYLHWYQQKPGKAPKLLIYSTSNLAFGVPSRFSGSGSGTSYTFTISSLQPEDIATYYCQQYSGYPLTFGSGTKLEIK
notes: also called humanized 7F3-hIgG1
As to B3, the EC50 came to 1.34 nM in assay [1]; 0.024 nM in assay [4]; 0.0427 nM in assay [2]; 0.0407 nM in assay [6]; 0.021 nM in assay [7]. For the same molecule, the Kd in assay [5] worked out at 0.495 nM; in assay [3], 0.472 nM.
